According to patent US20260041732A1, “USE OF APELIN FOR THE TREATMENT OF LYMPHEDEMA” (INSTITUT NATIONAL DE LA SANTE ET DE LA RECHERCHE MEDICALE, priority 2022, published 2026):

Legend:
E2F8 = experiment: Chromatin immunoprecipitation (ChIP) with E2F8 antibody; assay type: cell-based, human; settings: APELIN-overexpressing HDLEC
Procedure: Human dermal lymphatic endothelial cells (HDLEC) non transduced or transduced with Apelin Lentivector, were crosslinked for 15 min using 1% formaldehyde directly in the culture medium. 0.125 M of Glycine were then added for 5 min. After two washes with cold PBS, cells were scraped and frozen at −80° C. Cells were lysed to ChIP-IT Express Magnetic Chromatin
Immunoprecipitation kit (Active Motif 53008). Optimal sonication conditions were determined previously in order to obtain DNA fragments of about 500 bp. Cells were sonicated in 350 μl final volume of Shearing buffer specific to the kit, using Diagenode Bioruptor Sonicator (7 cycles, 30 sec ON, 30 sec OFF in a water bath). DNA concentration was determined using a Nanodrop and 25 μg of chromatin were used by reaction. Experiments were then performed according to the manufacturer protocol. 4 μg of E2F8 antibody (Abcam, AB 109596) were used by ChIP reaction. 10 μl of each sample were kept as Input. Reactions were incubated over night at 4° C. A mock sample without antibody was processed similarly. Prior to qPCR, DNA was purified using the Active Motif Chromatin IP DNA purification kit (58002), and eluted in 50 μl of DNase/RNase free water. 2 μl of purified chromatin was used for qPCR. In some experiments, ChIP reactions were supplemented with 10 ng of Drosophila melanogaster chromatin (spike in chromatin, Active motif, 08221011), and 1 μg of an antibody recognizing H2Av, a Drosophila specific histone variant, (spike in antibody, active motif, 61686), as an internal control for ChIP normalization.
HDLEC were seeded in 6-well plates at 100 000 cells/well. After 24 h, cells were transduced with 1 mL of Apelin lentivector diluted in 1 mL of OptiMEM Media in the presence of proteamine sulfate at a final concentration of 5 μg/mL. The Control cells (NT) non transduced with the Apelin Lentivector were processed at the same time and following the same protocol; in this case 2 mL of OptiMEM and 5 μg/mL of proteamine sulfate were added to the cells. The media was replaced after 24 h. […]

[1] = test system: Human dermal lymphatic endothelial cells (HDLEC); experiment: Cell migration, cell junction and cytoskeleton remodeling; assay type: cell-based
[2] = test system: Human dermal lymphatic endothelial cells (HDLEC); experiment: Immunoblotting of AKT, ERK and eNOS phosphorylation; assay type: cell-based; settings: conditioned media
Procedure: Human dermal lymphatic endothelial cells (HDLEC) (single donor, juvenile foreskin, Promocell, C-12216, >95% of the cells are CD31 positive and podoplanin positive) were cultured in Endothelial Cell Media MV2 (EGM-MV2, Promocell, C-22121). NIH3T3 were cultured in Dulbecco's modified Eagle's medium (DMEM, Sigma, D6429) supplemented with 10% fetal bovine serum (FBS, Gibco, 10270-06) and 1% penicillin-streptomycin. Endothelial cells were used at passage 3-6 and human fibroblasts were used at passage 4-7. Cells were cultured at 37° C. in a 5% CO2 incubator. Culture medium was changed 3 times a week, and the cells were passaged ⅓. For collecting conditioned media, NIH3T3 were grown in 10 cm dishes, after reaching confluence, medium was removed and the cells were washed once with PBS. NIH3T3 were cultured overnight in 5 mL reduced serum medium optiMEM (Gibco), the medium was then collected and used for experiments. HDLEC were treated with 50% conditioned media/50% MV2-05% FBS.
Cells were scrapped and lysed in RIPA buffer (RIPA 2X, Biotech RB4476) supplemented with phosphatase inhibitor (PhosSTOP Easypack, Roche0490687001) and protease inhibitors (protease inhibitor cocktail, Sigma Aldrich). Lysates were centrifuged at 13500 g for 10 minutes at 4° C. Supernatants were then collected and mix with Laemmli buffer containing dithiothreitol (DTT 1 mM). Protein were resolved on 4-15% SDS-PAGE gels and transferred to nitrocellulose membrane (Trans-Blot Turbo RTA transfer kit, #1704271, Biorad). Membranes were blocked for 1h at room temperature in 5% BSA-TBS-T (TBS-0.1% Tween 20) and probed with primary antibody overnight at 4° C. Antibody used are the following: Phospho AKT: AKT-p ser473 (CS #4060S), AKT: santa cruz H136 (S8312), Phospho ERK: ERK1/2-p (MAPKp42/44) (Thr202/Thr204) (cell signalling #9106), ERK ERK1/2-(MAPKp42/44) (Thr202/Thr204) (cell signalling #9102), Phospho eNOS (cell signalling #9571S), eNOS (cell signalling #5880S), E2F8 (Abcam, AB109596), VEGFR3 (RID system AF349), Phospho-VEGFR3 (Affinity AF3676), CCBE1 (Sigma SAB1402017).
After three washes in TBS-T, membranes were probed with HRP-conjugated secondary antibodies at 1/10000 dilution. Signals were visualized with chemiluminescence detection reagent (Sigma) on a Chemidoc (Biorad) digital acquisition system.

[3] = cited from earlier work
[4] = test system: Human dermal lymphatic endothelial cells (HDLEC); experiment: RT-qPCR validation of gene induction; assay type: cell-based; settings: RT-qPCR on HDLEC
Procedure: Total RNA was prepared using RNeasy kit (Qiagen 74106) according to the supplier's instruction. 1 μg of RNA was retro-transcribed using high-Capacity cDNA Reverse Transcription Kit (Thermo Fisher Scientific, 4368813) containing Multi-Scribe Reverse Transcriptase according to the supplier's instruction. Quantitative real-time PCR was performed using OneGreen FAST qPCR premix (Ozyme, OZYA008) on a StepOne Real-time PCR System (Thermofisher Scientific). All samples were analysed in duplicates. Data was normalized relative to HPRT mRNA levels.

B1: APELIN: bioactive peptide apelin, endogenous ligand of APJ; applied to HDLEC as conditioned media from LV-Apelin transduced NIH3T3 or by transduction (protein, listed as Homo sapiens)
chain: MNLRLCVQALLLLWLSLTAVCGGSLMPLPDGNGLEDGNVRHLVQPRGSRNGPGPWQGGRRKFRRQRPRLSHKGPMPF
E2F8
  E2F8 binding on FLT4: no binding
  E2F8 binding to CCBE1 promoter: significantly increased
  E2F8 binding to E2F1 transcription factor promoter: induced
[1]
  endothelial monolayer integrity: no effect
[1]; HDLEC
  cell junction or cytoskeleton remodeling: no effect
  cell migration: activation of cell migration
[2]; HDLEC
  eNOS phosphorylation: observed
[2]; 24 h time course
  AKT activation (phosphorylation): stimulated Akt phosphorylation after 1 hour
  ERK activation: without major effect
[2]; 24 h time course, listed as apelin
  AKT activation (phosphorylation): lesser extent than the phosphorylation induced by VEGF-C
[3]
  plasma apelin half-life: less than five minutes
[4]
  CCBE1 induction: strongly confirmed
